Entries after “also recorded” stand apart in the source; their conditions may differ.
B1: t3: truncated Phytophthora sojae Alt-PLC1, SEQ ID NO: 19 (protein)
chain: YQFDSLALAGSRVSVSISTNDVGIQFTTDGNGRGAIVYNIRKQSQAALSAAIVPGLSLIAINHEPVIALEFAVKIDYSHRIEVDKSASYLGSQMPNSSWKMVDKDDHVSRSARPGSVDDLIRELVAGTEVDLVDVVSFVLFLDSFSSLNEVVDRLSAHVRNGVKSHGLIRLFIVVLLFRQSETKEADDLRDRFYSLISLNIDAKDKLVPLVEEYMSLYKEYFSLRGAGNYAVNYQAIPGMMSKVYGMESGFEPVSSGPFSAHLHRFVHPFIQRNHAATATVTMHHLLFTNPLTKAKGAIAANAFTHFVFQIHIIINQGIAATIAQRNRIRFTRFQFQATRITAFFAAIRQAHMQQFVHIFIMLQGIRHALTMQNFHRQFAHTTQTVRVHQAFFIKRRQFVQAHKALQIQANIRHARVRGFTHQTVHFTAAFIAQQLHFVHHFLCIQAQFQIKANHFRTFFRGVLHQHRVNHKRANMLKPTFNAGKFHAMLFLATGRNKITHRNFAKHRMGQQGALFRPTFRI
modifications: Derived from Phytophthora sojae
B2: t2: truncated Phytophthora sojae Alt-PLC1, SEQ ID NO: 18 (protein)
chain: YQFDSLALAGSRVSVSISTNDVGIQFTTDGNGRGAIVYNIRKQSQAALSAAIVPGLSLIAINHEPVIALEFAVKIDYSHRIEVDKSASYLGSQMPNSSWKMVDKDDHVSRSARPGSVDDLIRELVAGTEVDLVDVVSFVLFLDSFSSLNEVVDRLSAHVRNGVKSHGLIRLFIVVLLFRQSETKEADDLRDRFYSLISLNIDAKDKLVPLVEEYMSLYKEYFSLRGAGNYAVNYQAIPGMMSKVYGMESGFEPVSSGPFSAHLHRFVHPFIQRNHAATATVTMHHLLFTNPLTKAKGAIAANAFTHFVFQIHIIINQGIAATIAQRNRIRFTRFQFQATRITAFFAAIRQAHMQQFVHIFIMLQGIRHALTMQNFHRQFAHTTQTVRVHQAFFIKRRQFVQAHKALQIQANIRHARVRGFTHQTVHFTAAFIAQQLHFVHHFLCIQAQFQ
modifications: Derived from Phytophthora sojae
B3: t1: truncated Phytophthora sojae Alt-PLC1, SEQ ID NO: 17 (protein)
chain: YQFDSLALAGSRVSVSISTNDVGIQFTTDGNGRGAIVYNIRKQSQAALSAAIVPGLSLIAINHEPVIALEFAVKIDYSHRIEVDKSASYLGSQMPNSSWKMVDKDDHVSRSARPGSVDDLIRELVAGTEVDLVDVVSFVLFLDSFSSLNEVVDRLSAHVRNGVKSHGLIRLFIVVLLFRQSETKEADDLRDRFYSLISLNIDAKDKLVPLVEEYMSLYKEYFSLRGAGNYAVNYQAIPGMMSKVYGMESGFEPVSSGPFSAHLHRFV
modifications: Derived from Phytophthora sojae
B4: Alt-PLC2: Phytophthora sojae Alt-PLC with the additional 35aa fragment in the RAS-GEF domain, SEQ ID NO: 14 (protein, listed as Phytophthora sojae)
chain: MASGWRQKPRLDPWDPPSPPPLLEEAAPKPKPKTSRFSRRSTRAKSHARQQAQHVELEREKAFRLVRHGSDPLLNDAFYATQVQVGNFVKMGWLTKQGHMWKSWKTRFFVLFSDGTFAYYKNKGRKKIKGCMQLNDGVVSVQHVDIRLADKAYVFQIEKGFYKLLCYCCSQFEAELWVAALRSVRRVAPPCYEMDLTATEEKAGSNAVTRHLNKIFITDKQIAKRLAEFKANTHDHSYAAIHNFIVELDDAIIDRHHLEFYQDAEIELLPGNELVRLIRRHVEDRVFIPLYAEAYASLETDKVKTRRSNLEQHLKVLKQKTQADFGISKDLSVCNWKQAISVVNMLDCVSLPTHKFEVILSAGKAIMELIAQYNGELFEVSDEMLTAIFRYVVTMSSLSDLPTLRALLKYGYQHHPASQNKANVVTAFLNAIKWVECFEAGDESYQFDSLALAGSRVSVSISTNDVGIQFTTDGNGRGAIVYNIRKQSQAALSAAIVPGLSLIAINHEPVIGMPFDKIIQRVRTAALPKQLTFMTEFYYYQLLSLDSEMYQYLMCIAARRGDLDSAAWMRSSTIELNTLCSWEKSRGKQVFGFTPVSGKGSPLHAAVHNGQLSMVNYLISRGADVNLCNQKGRRPLHVVKQSIDMAMIIQSLIDAGADIDAMEKHGLTPLMFMCSRASLEGSATLLALGADVHCVAWTNGFSALEFAVKSEHTELVELCLSKGANPNAPTLDGNTSLHLAATQANTDIILRLLQGGANPNVQNRYGQTPAALLLASSPGGSSDVRILCLEILTCAGCRLDKRDLFGRQASHLASISRDSHVVDLLRKLGSLNREANGVEIDIFGCSSVDYSHRIEVDKSASYLGSQMPNSSWKMVDKDDHVSRSARPGSVDDLIRELVAGTEVDLVDVVSFVLFLDSFSSLNEVVDRLSAHVRNGVKSHGLIRLFIVVLLFRQSETKEADDLRDRFYSLISLNIDAKDKLEYFSLRGAGNYAVNYQAIPGMMSKVYGMESGFEPVSSGPFSAHLHRFVDAERWAEQCTLLTHAVFCKIPVRDFIPTGSKKKHSVEFTSIKRWFQHISAFVINAVLVQNTPEERAEVISFYLKVADYCISLHNHDTLASILYALQSTAVQRLRKTIDCLSLDAKKMMNEMQLLSDKGCREMNRLMRKTANPSMPYIGLYLQGFVGLNELPAFDKEGLVNANRLRRMGELAMEILHRQSVAYTLQHDEDVNKLLHVSLPYSSEESRYARSLELEPREADAIPLSDRGSYTLIDDDVDLENEVRESIGGDGTFGFRQWIRKQQVVHRNRSRSSVIALY

Key:
[1] = system: E. coli; assay: Growth curves of E. coli expressing Alt-PLC and truncations; type: cell-based; conditions: relative to E. coli not expressing Alt-PLC
Description: An analysis of function of the Alt-PLC truncations was performed using growth curves of Alt-PLC expressing E. coli cells (FIG. 28).
Therefore, growth curves of E. coli expressing Alt-PLC and the truncations allow determination of Alt-PLC function in vivo.

[2] = Hydrolysis of PIPx, neutral-lipid TLC; type: biochemical; conditions: 0.2 mg/ml enzyme
Description: Lipid samples of 0.5 μl were applied to silica 60 TLC plates and allowed to dry prior to the addition of more sample. Neutral lipids were applied to 10×20 cm pre-absorption zone-bearing silica-60 plates (Sigma-Aldrich, USA) and resolved in a solvent mixture of hexane:diethyl ether:acetic acid (9:1:0.5). Phospholipids were resolved on 20×20 cm silica-60 plates (Merck, Australia), without a pre-absorption zone, in a solvent mixture of chloroform:methanol:acetic acid:water (90:40:12:2). Lipids were detected by spraying the dried TLC plates with a solution of 0.05% rhodamine B (Sigma) in methanol and destaining was performed by repeated spraying with 5 M KOH. Lipid spots were then visualised following UV excitation at 312 nm.
Alt-PLC and Alt-PLC2 were refolded into buffer A4 at a concentration of 0.2 mg/ml and a hydrolysis reaction was performed using PIPx (mixed phosphatidylinositols, Sigma) as the substrate. The reaction was performed as described previously and the resultant neutral lipids were extracted by diethyl ether phase extraction. The samples were analysed by neutral-lipid thin-layer chromatography, on silica 60 plates with a pre-absorption zone; the mobile phase employed was hexane: diethyl ether: acetic acid (9:1:0.5).

Molecule | growth of expressing E. coli (function in vivo) [1] | monoacylglycerol production / phospholipase C activity level in vitro [2]
B1 | reduced growth of E. coli; also recorded: significantly higher lethality | –
B2 | reduced growth of E. coli | –
B3 | reduced growth of E. coli | –
B4 | same reduced growth rate shown by cells expressing Alt-PLC1 | detection of monoacylglycerol production

Source: patent US20140329787A1, “PHYTOPHTHORA PHOSPHOLIPASE C” (Deakin University, priority 2011, published 2014)
